Here are results for 2 molecules from patent US9463217B1, “Methods and pharmaceutical compositions for treatment of retinal occlusion” (Institut National de la Sante et de la Recherche Medicale, priority 2012, dated 2016).

One assay relates to RBC adhesion in SCD. Particulars: treatment by hydroxyurea, ref. [32]; cited from earlier work.
The subject of assay [1] is adhesion of red blood cells (RBCs) from patients with central retinal vein occlusion to human microvascular endothelial cells (HMEC-1). Kind of assay: RBC adhesion to HMEC under static conditions (radiometric 51Cr technique), inhibition by antibodies, peptide or annexin V. The class given is cell-based. The procedure: (§1) Blood samples were tested after storage at −196° C. as previously described. For the first 10 patients, RBC adhesion (on three occasions, n=30) was measured just after blood sampling and after storage. As the results were similar before and after storage (the interassay coefficient of variation was 13%±2%) all remaining patients were tested after storage.
RBC adhesion was measured under static conditions using a radiometric technique as previously described. Human microvascular endothelial cells (HMEC-1 Biological Branch Products; CDC, Atlanta, Ga., USA) were cultured in MCDB-131 (Invitrogen, Grand Island, N.Y., USA) supplemented with 15% fetal calf serum (D. Dutscher, Brumath, France), endothelial growth factor (10 ng mL^−1) and hydrocortisone (1 μg mL^−1)(Invitrogen). […] Radioactivity in the lysate was measured in a gamma counter, and adhesion was then calculated as RBCs per square millimeter. […] Inhibition of RBC adhesion was assessed using HMEC preincubated with specific antibodies directed against PS receptor (polyclonal anti-PS receptor antibody, Sigma, St Louis, Mo., USA; polyclonal anti-human stabilin-2 antibody, R&D systems, Minneapolis, Minn., USA) or against human CD36 (monoclonal anti-CD36/SR-B3; R&D systems) or antihuman Brain-specific angiogenesis inhibitor-1 (BAI-1; Santa Cruz Biotechnology, Santa Cruz, Calif., USA). […]

Assay [2] deals with adhesion of red blood cells (RBCs) from patients with central retinal vein occlusion to human microvascular endothelial cells (HMEC). Kind of assay: RBC adhesion to HMEC under flow conditions (microslides, video-microscopy), inhibition by antibodies, peptide or annexin V. The class given is cell-based. As to the method: as §1
Adhesion of RBCs to HMEC under flow conditions was determined according to a previously published technique. Briefly, HMEC were cultured in gelatin (2%) coated glass capillaries (microslides; Camlab Ltd, Cambridge, UK) for 24 h. Microslides containing confluent HMEC were mounted on the stage of a video-microscope. The RBC suspension (hematocrit 0.5%) was perfused through the microslide at a flow rate equivalent to a wall shear stress of 0.03 Pa for […], followed by washout of non-adherent cells for 10 min. The wall shear stress was then increased stepwise (from 0.03 to 0.3 Pa) every 5 min. At each step, adherent RBCs were video-recorded in 10 consecutive fields (one field measures 0.1 mm^2), then were counted using a computerized image analysis system (Optimas Media Cybernetics, Bethesda, Md., USA; R & D Vision, Paris, France) and expressed as number of RBCs per mm^2. Inhibition of RBC adhesion was measured in the presence of the antibodies used in static conditions or after RBC incubation with annexin V.

Turning to `NC(=O)NO` [hydroxyurea], the “effect on RBC adhesion (in words)” value in the assay with RBC adhesion in SCD is given as “reduced RBC adhesion”.

B1: Annexin V: recombinant, purified annexin V (BD Biosciences); binds to PS (protein, UniProt P08758 2-320, looked up)
Annexin A5: AQVLRGTVTDFPGFDERADAETLRKAMKGLGTDEESILTLLTSRSNAQRQEISAAFKTLFGRDLLDDLKSELTGKFEKLIVALMKPSRLYDAYELKHALKGAGTNEKVLTEIIASRTPEELRAIKQVYEEEYGSSLEDDVVGDTSGYYQRMLVVLLQANRDPDAGIDEAQVEQDAQALFQAGELKWGTDEEKFITIFGTRSVSHLRKVFDKYMTISGFQIEETIDRETSGNLEQLLLAVVKSIRSIPAYLAETLYYAMKGAGTDDHTLIRVMVSRSEIDLFNIRKEFRKNFATSLYSMIKGDTSGDYKKALLLLCGEDD
For the molecule B1, the “inhibition of CRVO RBC adhesion to HMEC” value in assay [1] is 35%; in assay [2] (according to the shear stress), 68-74%; in assay [2] (shear stress 0.1 Pa) it was 75%±6%; in assay [2] (shear stress 0.3 Pa), 74%±8%.
